Experimental data reported in PMC7166090, “A bacteriophage mimic of the bacterial nucleoid-associated protein Fis” (Biochemical Journal, 2020).

Molecular target: T1, His-NinH wt (Bacteriophage lambda (cI857 Sam7), UniProt P03771 1-68, A15T)
T1 sequence: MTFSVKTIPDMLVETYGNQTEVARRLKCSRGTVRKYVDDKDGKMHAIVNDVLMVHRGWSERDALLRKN
Assay: EMSA; assembles on each arm; MST: PBS pH 7.4 + 0.05% Tween-20, 22 C; anisotropy: 6.7 mM Tris-HCl pH 8.0, 3.3 nM (so in the source) sodium acetate, 2 mM EDTA, 25 C; EMSA (32P): 50 mM Tris-HCl pH 8.0, 5 mM EDTA, 1 mM DTT, 5% glycerol, 100 ug/ml BSA, on ice; EMSA (Cy520): PBS pH 7.4, room temp
Conditions: protein: recombinant; tags: N-His6; chain copies: 2; label: 5'-32P on strand 1; four-way junction, 11 bp homologous core

B1: Holliday junction HJ (structured_DNA)
DNA 1: GGCGACGTGATCACCAGATGATTGCTAGGCATGCTTTCCGCAAGAGAAGC
DNA 2: GGCTTCTCTTGCGGAAAGCATGCCTAGCAATCCTGTCAGCTGCATGGAAC
DNA 3: GGTTCCATGCAGCTGACAGGATTGCTAGGCTCAAGGCGAACTGCTAACGG
DNA 4: ACCGTTAGCAGTTCGCCTTGAGCCTAGCAATCATCTGGTGATCACGTCGC
- binding result: binds
